{"source": "paper PMC7560960", "about": "(Cellular microbiology, 2018)", "molecules": {"B1": {"name": "recombinant LIC10831, histidine tag removed (natural protein)", "chain": "EEPGTYRDLTKALQNPLEVRVLDLSRQELKTLPIEIGKLKNLQRLYLHYNQLTVLPQEIEQLKNLQLLYLRSNRLTTLPKEIEQLKNLQVLDLGSNQLTVLPQEIEQLKNLQLLYLHSNRLTTLSKDIEQLQNLKSLDLSNNQLTTLPNEIEQLKNLKSLYLSENQFATFPKEIGQLQNLKVLFLNNNQITILPNEIAKLKKLQYLYLSDNQLITLPKEIEQLKNLQTLDLSYNQLTILPKEVGQLENLQTLDLRNNQLKTLPKEIEQLKNLQTLFLSNNQLTILPQEIGKLKNLLWLSLVYNQLTTLPNEIEQLKNLQTLYLNNNQFSSQEKKRIRKLLPKCQIYFD"}}, "key": {"[1]": {"biological_target": "E-cadherin (Homo sapiens) (UniProt P12830)", "sequence (P12830 155-709)": "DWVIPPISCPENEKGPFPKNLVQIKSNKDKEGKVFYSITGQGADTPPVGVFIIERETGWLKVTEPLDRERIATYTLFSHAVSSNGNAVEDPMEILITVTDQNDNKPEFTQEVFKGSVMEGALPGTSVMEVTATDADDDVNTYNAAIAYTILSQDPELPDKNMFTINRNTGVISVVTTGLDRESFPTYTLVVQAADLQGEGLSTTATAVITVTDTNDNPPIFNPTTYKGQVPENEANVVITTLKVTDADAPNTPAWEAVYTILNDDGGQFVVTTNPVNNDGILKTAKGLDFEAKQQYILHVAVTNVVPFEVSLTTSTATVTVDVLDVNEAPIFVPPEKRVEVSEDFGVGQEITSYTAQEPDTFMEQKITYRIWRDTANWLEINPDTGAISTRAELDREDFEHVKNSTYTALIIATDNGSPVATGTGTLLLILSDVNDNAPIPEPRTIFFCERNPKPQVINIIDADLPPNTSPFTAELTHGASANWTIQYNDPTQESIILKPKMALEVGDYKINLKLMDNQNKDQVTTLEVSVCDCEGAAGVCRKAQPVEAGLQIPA", "conditions": "cited from earlier work"}, "[2]": {"biological_target": "T1, recombinant human E-Cad (Gln23 - Pro621 fused to human IgG Fc) (human, UniProt P12830 23-621)", "T1 sequence (looked up)": "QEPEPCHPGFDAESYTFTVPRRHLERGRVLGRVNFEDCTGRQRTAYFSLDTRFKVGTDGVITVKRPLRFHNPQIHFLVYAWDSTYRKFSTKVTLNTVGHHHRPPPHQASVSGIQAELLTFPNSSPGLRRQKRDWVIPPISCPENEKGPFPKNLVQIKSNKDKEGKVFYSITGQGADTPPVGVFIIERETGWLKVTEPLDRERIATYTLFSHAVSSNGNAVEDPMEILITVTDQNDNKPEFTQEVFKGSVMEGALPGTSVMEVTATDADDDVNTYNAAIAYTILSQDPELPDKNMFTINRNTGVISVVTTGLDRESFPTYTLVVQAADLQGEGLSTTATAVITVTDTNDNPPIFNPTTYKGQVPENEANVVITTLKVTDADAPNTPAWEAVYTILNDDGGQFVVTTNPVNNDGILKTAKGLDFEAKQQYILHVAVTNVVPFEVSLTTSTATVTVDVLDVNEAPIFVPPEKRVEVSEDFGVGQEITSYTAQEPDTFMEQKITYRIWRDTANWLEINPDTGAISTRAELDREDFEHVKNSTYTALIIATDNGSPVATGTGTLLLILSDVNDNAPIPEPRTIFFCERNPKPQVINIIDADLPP", "test": "SPR"}, "[3]": {"biological_target": "T2, recombinant human VE-cad (Asp48-Gln593 fused to human IgG Fc) (human, UniProt P33151 48-593)", "T2 sequence (looked up)": "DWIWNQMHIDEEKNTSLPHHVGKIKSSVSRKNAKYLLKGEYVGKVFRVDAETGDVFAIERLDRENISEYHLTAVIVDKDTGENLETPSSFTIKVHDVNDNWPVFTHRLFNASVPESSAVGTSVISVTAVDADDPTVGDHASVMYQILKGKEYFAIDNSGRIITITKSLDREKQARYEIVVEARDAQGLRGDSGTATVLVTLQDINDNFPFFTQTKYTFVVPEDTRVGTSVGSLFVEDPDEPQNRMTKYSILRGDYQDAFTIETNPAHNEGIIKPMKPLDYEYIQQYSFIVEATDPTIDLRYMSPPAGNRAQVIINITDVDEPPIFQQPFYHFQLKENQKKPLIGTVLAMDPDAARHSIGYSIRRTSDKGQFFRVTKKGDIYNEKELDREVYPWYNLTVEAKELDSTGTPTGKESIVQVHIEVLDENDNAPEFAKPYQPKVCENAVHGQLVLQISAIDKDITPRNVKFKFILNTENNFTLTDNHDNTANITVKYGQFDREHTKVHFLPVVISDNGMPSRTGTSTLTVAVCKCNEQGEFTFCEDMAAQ", "test": "SPR"}}}
{"molecule": "InlA (from UniProt P0DJM0)", "values": [{"measurement": "Kd", "setting": "[1]", "result": 8, "unit": "µM"}]}
{"molecule": "B1", "values": [{"measurement": "Kd", "setting": "[2]", "result": 2.3, "unit": "µM"}, {"measurement": "Kd", "setting": "[3]", "result": 5.8, "unit": "µM"}]}
